Source: the RNAGym collection of RNA variant scans (doi:10.1073/pnas.2313332121)
Fewer inactive variants are shown than the library holds.

B1: TPR 5TU (parent)
chain: GGAUCUUCUCGAUCUAACAAAAAAGACAAAUCUGCCACAAAGCUUGAGAGCAUCUUCGGAUGCAGAGGCGGCAGCCUUCGGUGGCGCGAUAGCGCCAACGUUCUCAACUAUGACACGCAAAACGCGUGCUCCGUUGAAUGGAGUUUAUCAUG

Variants of: B1
Experiment: polymerase ribozyme fitness, log enrichment relative to wild type (log ratio); higher = more active; in vitro selection for triplet polymerase activity
Outline: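 A heterodimeric triplet polymerase ribozyme had each of its subunits mutagenized by PCR into a library, which was transcribed. One round of in vitro selection, done in triplicate, annealed each library with a biotinylated primer, its partner subunit and triplets, then incubated it frozen at −7 °C before gel excision of extended constructs, streptavidin-bead capture and RT-PCR. Fitness is the logarithm of genotype enrichment relative to wild-type enrichment, based on Illumina sequencing of inputs and outputs and inverse-variance-weighted replicate averages. A base-2 logarithm is used, and genotypes were kept only with ≥10 input reads and ≥1 read per output.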

Variant | polymerase ribozyme fitness (log ratio)
GGAUCUUCUCGAUCUAACAAAAAAGACAAAUCUGCCACAAAGCUUGAGAGCAUCUUCGGAUGCAGAGGCGGCAGCCUUCGGUGGCCCGAUAGCGCCAACGUUCUCAACUAUGACACGCAAAACGCGUGCUUCGUUGAAUGGAGUUUAUCAUG | -2.55
GGAUCUUCUCGAUCUAACAAAAAAGACAAAUCUGCCACAAAGCUUGAGAGCAUCUUCGGAUGCAGAGGCGGCAGCCUUCGGUGGCCCGAUAGCGCCAACGUUCUCAACUAUGACAUGCAAAACGCGUGCUCCGUUGAAUGGAGUUUAUCAUG | -2.44
GGAUCUUCUCGAUCUAACAAAAAAGACAAAUCUGCCACAAAGCUUGAGAGCAUCUUCGGAUGCAGAGGCGGCAGCCUUCGGUGGCCCGAUAGCGCCAAGGUUCUCAACGAUGACACGCAAAACGCGUGAUCCGUUGAAUGGAGUUUAGCAUG | ≤ -4.2
GGAUCUUCUCGAUCUAACAAAAAAGACAAAUCUGCCACAAAGCUUGAGAGCAUCUUCGGAUGCAGAGGCGGCAGCCUUCGGUGGCACGAUAGCGCCAACGUUGUCAACUAUGACACGCAAAAUGCGUGCUCCGUUGAAUGGAGUUUAUCAUG | -3.36
GGAUCUUCUCGAUCUAACAAAAAAGACAAAUCUGCCACAAAGCUUGAGAGCAUCUUCGGAUGCAGAGGCGGCAGCCUUCGGUGGCCCGAUAGCGCUAACGUUCUCAACUAUGACACGCAAAACGCGUGCUCCGUUGAAUGGAGUUUAUCAUG | -2.67
GGAUCUUCUCGAUCUAACAAAAAAGACAAAUCUGCCACAAAGCUUGAGAGCAUCUUCGGAUGCAGAGGCGGCAGCCUUCGGUGGCCCGAUAGCGCCACCGUUCUCAACUAUGACACGCAAAACGCGUGCUCCGUUGAAUGGAGUUUAUCAUG | -1
GGAUCUUCUCGAUCUAACAAAAAAGACAAAUCUGCCACAAAGCUUGAGAGCAUCUUCGGAUGCAGAGGCGGCAGCCUUCGGUGGCCCGAUAGCGCCAACGUUCUCAACUAUGAUACGCAAAACGCGUGCUCCGUUGAAUGGAGUUUAUCAUG | -3.9
GGAUCUUCUCGAUCUAACAAAAAAGACAAAUCUGCCACAAAGCUUGAGAGCAUCUUCGGAUGCAGAGGCGGCAGCCUUCGGUGGCCCGAUAGCGCCAACGAUCGCACCUAUCACACGCAAAACGCGUGCUCCGUUGAAUGGAGUUUAUCAUG | ≤ -4.2
GGAUCUUCUCGAUCUAACAAAAAAGACAAAUCUGCCACAAAGCUUGAGAGCAUCUUCGGAUGCAGAGGCGGCAGCCUUCGGUGGCCCGAUAGCGCCAACGUUCUCAACUAUGACACGCAAAACGCGUGCUCCGUUGAAUGGAGUUUAUCAUG | -2.55
GGAUCUUCUCGAUCUAACAAAAAAGACAAAUCUGCCACAAAGCUUGAGAGCAUCUUCGGAUGCAGAGGCGGCAGCCUUCGGUGGCUCGAUAGCGCCAACGUUCUCAACUAUGACACGCAAAACGCGUGCUCCGUUGAAUGGAGUUUAUCAUG | -1.62
GGAUCUUCUCGAUCUAACAAAAAAGACAAAUCUGCCACAAAGCUUGAGAGCAUCUUCGGAUGCAGAGGCGGCAGCCUUCGGUGGCCCGAUAGCGCCAACGUUCUCAACGAUGACACGGAAAACGCGUGCUCCGUUGAAUGGAGUUUAUCAUG | -3.5
GGAUCUUCUCGAUCUAACAAAAAAGACAAAUCUGCCACAAAGCUUGAGAGCAUCUUCGGAUGCAGAGGCGGCAGCCUUCGGUGGCACGAAAGCGCCAACGUUCUCAACUAUGACACGCAAAACGCGUGCUCCGUUGAAUGGAGUUUAUCAUG | -3.67
GGAUCUUCUCGAUCUAACAAAAAAGACAAAUCUGCCACAAAGCUUGAGAGCAUCUUCGGAUGCAGAGGCGGCAGCCUUCGGUGGCACGAUAGCGCCAACGUUGUCAACUAUGACACGCAAAACGCGUGCUCCGAUGAAUGGAGUUUAUCAUG | ≤ -4.2
GGAUCUUCUCGAUCUAACAAAAAAGACAAAUCUGCCACAAAGCUUGAGAGCAUCUUCGGAUGCAGAGGCGGCAGCCUUCGGUGGCUCGAUAGCGCCAUCGUUCUCAACUAGGAUACGCAAAACGCGUGCUCCGUUGAAUGGAGUUUAUCAUG | -3.81
GGAUCUUCUCGAUCUAACAAAAAAGACAAAUCUGCCACAAAGCUUGAGAGCAUCUUCGGAUGCAGAGGCGGCAGCCUUCGGUGGCCCGAUAGCGCCAACGUUCUCAACUAUGACACGCAAAACGCGUGCUCCGUUGAAUGGAGUCUAUCAUG | -3.66
GGAUCUUCUCGAUCUAACAAAAAAGACAAAUCUGCCACAAAGCUUGAGAGCAUCUUCGGAUGCAGAGGCGGCAGCCUUCGGUGGCCCGAUAGCGCCAACGUUCUUAACUAUGACACGCAAAACGCGUGCUCCGUUGAAUGGAGUUUAUCAUG | -1.5
GGAUCUUCUCGAUCUAACAAAAAAGACAAAUCUGCCACAAAGCUUGAGAGCAUCUUCGGAUGCAGAGGCGGCAGCCUUCGGUGGCUCGGUAGCGCCAACGUUCUCAACUAUGACACGCAAAACGCGUGCUCCGUUGAAUGGAGUAUAUCAUG | -3.28
GGAUCUUCUCGAUCUAACAAAAAAGACAAAUCUGCCACAAAGCUUGAGAGCAUCUUCGGAUGCAGAGGCGGCAGCCUUCGGUGGCUCGUUAGCGCCAACGUUCUCAACUAUGUCACGCAAAACGCGUGCUGCGUUGAAUGGAGUUUAUCAUG | ≤ -4.2
GGAUCUUCUCGAUCUAACAAAAAAGACAAAUCUGCCACAAAGCUUGAGAGCAUCUUCGGAUGCAGAGGCGGCAGCCUUCGGUGGCCCGAUAGCGCCAACGUUCACAACUAUGACACGCAAAACGCGUGCUCCGUUGAAUGGAGUUUAUCAUG | -2.46

Variant | polymerase ribozyme fitness (log ratio)
GGAUCUUCUCGAUCUAACAAAAAAGACAAAUCUGCCACAAAGCUUGAGAGCAUCUUCGGAUGCAGAGGCGGCAGCCUUCGGUGGCCCGAUAACGCCAACGUUCUCAACUAUGACACGCAAAACGCGUGCUCCGUUGAAUGGAGUUUAUCAUG | ≤ -4.2
GGAUCUUCUCGAUCUAACAAAAAAGACAAAUCUGCCACAAAGCUUGAGAGCAUCUUCGGAUGCAGAGGCGGCAGCCUUCGGUGGCACGAUAGCGCCAACGUUCUUAACUAUGACACGCAAAACGCGUGCUCCGUUGAAUGGAGUUUAUCAUG | -0.138
GGAUCUUCUCGAUCUAACAAAAAAGACAAAUCUGCCACAAAGCUUGAGAGCAUCUUCGGAUGCAGAGGCGGCAGCCUUCGGUGGCACGAUAGCGCCAACGUUCUCAACUAUGACACGCAAAACGCGUGCUCCGUUGAAUGUAGUUUAUCAUG | -1.07
GGAUCUUCUCGAUCUAACAAAAAAGACAAAUCUGCCACAAAGCUUGAGAGCAUCUUCGGAUGCAGAGGCGGCAGCCUUCGGUGGCACGAUAGCGCCAAGGUUCUCAACUAUGACACGCAAAACGCGUGCUCCGUUGAAUGGAGUUUAUCAUG | -3.06
GGAUCUUCUCGAUCUAACAAAAAAGACAAAUCUGCCACAAAGCUUGAGAGCAUCUUCGGAUGCAGAGGCGGCAGCCUUCGGUGGCAGGAUAGCGCCAACGUUCUCAACUAUGACACGCAAAACGCGUGCUCCGUUGAAUGGAGUUUAUCAUG | -3.97
GGAUCUUCUCGAUCUAACAAAAAAGACAAAUCUGCCACAAAGCUUGAGAGCAUCUUCGGAUGCAGAGGCGGCAGCCUUCGGUGGCACGAUAGCGCCAACGUUCUCAACUAUGACACGUAAAACGCGUGCUCCGUUGAAUGCAGUUUAUCAUG | -1.77
GGAUCUUCUCGAUCUAACAAAAAAGACAAAUCUGCCACAAAGCUUGAGAGCAUCUUCGGAUGCAGAGGCGGCAGCCUUCGGUGGCACGAUAGCCCCAACGUUCUCAACUAUGACACGCAAAACGCGUGCUCUGUUGAAUGCAGUUUAUCAUG | ≤ -4.2
GGAUCUUCUCGAUCUAACAAAAAAGACAAAUCUGCCACAAAGCUUGAGAGCAUCUUCGGAUGCAGAGGCGGCAGCCUUCGGUGGCCCGAUAGCGCCAACGUUCUCAACUAUGACACGCAAAACGCGUGCUCCGUUAAAUGGAGUUUAUCAUG | -1.38
GGAUCUUCUCGAUCUAACAAAAAAGACAAAUCUGCCACAAAGCUUGAGAGCAUCUUCGGAUGCAGAGGCGGCAGCCUUCGGUGGCCCGAUAGCGCCAACGUUCUCAACUAUGACACGCAAAACACGUGCUCCGUUGAAUGGAGAUUAUCAUG | -2.44
GGAUCUUCUCGAUCUAACAAAAAAGACAAAUCUGCCACAAAGCUUGAGAGCAUCUUCGGAUGCAGAGGCGGCAGCCUUCGGUGGCCCGAUAGCGCCAACGGUCUCAACUAUGACACGCAAAACUCGUGCUCCGUUGAAUGGAGUUUAUCAUA | -4.15
GGAUCUUCUCGAUCUAACAAAAAAGACAAAUCUGCCACAAAGCUUGAGAGCAUCUUCGGAUGCAGAGGCGGCAGCCUUCGGUGGCUCGAUAGCGCCAACGUUCUCAGCUAUGACACGCAAAACGCGUGCUCCGUUGAAUGGACUUUAUCAAG | ≤ -4.2
GGAUCUUCUCGAUCUAACAAAAAAGACAAAUCUGCCACAAAGCUUGAGAGCAUCUUCGGAUGCAGAGGCGGCAGCCUUCGGUGGCACGAUAGCGCCAACGUUCUCAACUAUGACAGGCAAAACGCGUGCUCCGUUGAAUGGAGUUUAUCCUG | -3.93
GGAUCUUCUCGAUCUAACAAAAAAGACAAAUCUGCCACAAAGCUUGAGAGCAUCUUCGGAUGCAGAGGCGGCAGCCUUCGGUGGCACGAUAGCGCCAACGUUCUCAACUAUGACACGCAAAACGCGUGCUCCGUUGAAUGGAGUUUAUAAUG | ≤ -4.2
GGAUCUUCUCGAUCUAACAAAAAAGACAAAUCUGCCACAAAGCUUGAGAGCAUCUUCGGAUGCAGAGGCGGCAGCCUUCGGUGGCACGAUAGCGCCAACGUGCUCAACUAUGACACGCAAAACGCGUGCUCCGUUGAAUGGAGUUUAUCAUG | -4.05
GGAUCUUCUCGAUCUAACAAAAAAGACAAAUCUGCCACAAAGCUUGAGAGCAUCUUCGGAUGCAGAGGCGGCAGCCUUCGGUGGCUCGCUAGCGCCAACGUUCUCAACUAUGACACGCCAAACGCGUGCUCCGUUGAAUGGAGUUUAUCAUG | -3.83
GGAUCUUCUCGAUCUAACAAAAAAGACAAAUCUGCCACAAAGCUUGAGAGCAUCUUCGGAUGCAGAGGCGGCAGCCUUCGGUGGCCCGAUAGCGCCAACGGUCUCAACUAUGACACGCAAAACGCGUGCUCCGUUGAAUGGAGUUUAUCAUG | -2.8
GGAUCUUCUCGAUCUAACAAAAAAGACAAAUCUGCCACAAAGCUUGAGAGCAUCUUCGGAUGCAGAGGCGGCAGCCUUCGGUGGCACGAUAGCGCCAACGUUCUCAACUAUGACACGCAAAACGCGUGCUCCGUUGAAUGGAUUUUAUCAUG | -3.07
GGAUCUUCUCGAUCUAACAAAAAAGACAAAUCUGCCACAAAGCUUGAGAGCAUCUUCGGAUGCAGAGGCGGCAGCCUUCGGUGGCACGAUAGCGCCAACGUUCUCAACUAUGACACGCAAAACGCGUGCUCCGUUGAAUGGAAUUUAUCAUG | -1.25
GGAUCUUCUCGAUCUAACAAAAAAGACAAAUCUGCCACAAAGCUUGAGAGCAUCUUCGGAUGCAGAGGCGGCAGCCUUCGGUGGCACGAUAGCGCCAACGUUCUCAACUAUGACACGCAAAACGCGUGCUCCGUUGAAUGGACUUUAUCAUG | -2.14
